US20250171545A1

Target: hFGFR1c and hKLB co-expressed on HEK293 cells (human) (UniProt P11362)
Assay: cell-based or functional assay

REGN4366 (bispecific antibody)
% activation, SRE-luciferase reporter, normalized against soluble FGF21: 19%
